T1: C-terminus-biotin labeled compound 1 (an N-terminus peptide of FGF-8; SEQ ID NO:15) (human, C-terminus-biotin labeled)
T1 construct: also called FGF-8 peptide
T1 peptide: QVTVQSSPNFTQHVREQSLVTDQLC

T2: BSA-compound 1 conjugate (human FGF-8 peptide Compound 1, SEQ ID NO:15, conjugated to bovine serum albumin) (human, conjugated to bovine serum albumin through SMCC)
T2 construct: The BSA carrier is not written as a chain
T2 peptide: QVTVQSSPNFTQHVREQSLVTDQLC

T3: FGF-8 (manufactured by R&D) (UniProt P55075-3 23-215, limits assumed)
T3 sequence (looked up): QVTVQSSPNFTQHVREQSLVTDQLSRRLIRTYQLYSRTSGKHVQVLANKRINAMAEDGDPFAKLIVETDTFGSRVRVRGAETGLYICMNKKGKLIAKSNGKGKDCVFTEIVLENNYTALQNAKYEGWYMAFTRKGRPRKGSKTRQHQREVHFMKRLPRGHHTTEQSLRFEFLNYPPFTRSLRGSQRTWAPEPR


How the values were obtained:
[1] = molecular target: T1, C-terminus-biotin labeled compound 1 …; test: BIAcore 2000, C-terminus-biotin labeled FGF-8 peptide on SA chip, antibody as analyte, RU compared
Experimental: In order to examine the activity of various anti-FGF-8 CDR-grafted antibodies obtained in the item 5 of Example 3 to bind to FGF-8 in more detail, activities of various anti-FGF-8 CDR-grafted antibodies to bind to FGF-8 were measured and compared as follows by using BIAcore 2000 (manufactured by BIACORE). The CHO/DG44-derived anti-FGF-8 chimeric antibody KM3034 obtained in the item 3(1) of Example 1 was used as a positive control.
Hereinbelow, HBS-EP (manufactured by Pharmacia) was used as the buffer solution for dilution of samples and during the measurement. First, a sensor tip SA (manufactured by BIACORE) was set, and 5 μl of a C-terminus-biotin labeled compound 1 (an N-terminus peptide of FGF-8; SEQ ID NO:15) prepared to a solution of 0.05 μg/ml was added thereto at a flow rate of 20μl/minute. Thereafter, the tip surface was washed by adding 5 μl of 10 mmol/l Glycine-HCl buffer (pH 1.5) continuously twice. Immobilized amount of the FGF-8 peptide was 35 RU.
To the FGF-8 peptide immobilized flow cell, 60 μl of each antibody solution was added at a flow rate of 20 μl/minute, and then the dissociation reaction was monitored for 3 minutes. After the dissociation reaction, the tip surface was regenerated by adding 20 μl of 10 mmol/l Glycine-HCl buffer (pH 1.5) continuously twice. This cycle was carried out for antibody solutions of various concentrations (50 to 1.85 μg/ml), and a sensorgram at each concentration was obtained. The sensorgram of each antibody was made into a sensorgram of specific reaction by subtracting a sensorgram obtained using a chimeric antibody KM871 for GD3 [Cancer Immunol. Immunother., 36, 373 (1993)] as a negative control.

[2] = molecular target: T2, BSA-compound 1 conjugate (human FGF-8 …); test: ELISA, plate-coated BSA-compound 1 conjugate, anti-human IgG-peroxidase detection; positive control
Experimental: The conjugate prepared in the above was dispensed at 50 μl/well into a 96 well plate for ELISA (manufactured by Greiner) at a concentration of 0.5 to 1.0 μg/ml and allowed to stand for adsorption overnight at 4° C. After washing with PBS, 1% BSA-containing PBS (BSA-PBS) was added at 100 μl/well and allowed for blocking of remaining active groups to react at room temperature for 1 hour. After washing each well with 0.05% Tween-containing PBS (Tween-PBS), culture supernatants of transformants or purified antibodies were added at 50 μl/well and allowed to react at room temperature for 1 hour. After the reaction, each well was washed with Tween-PBS and then a peroxidase-labeled goat anti-human IgG (H & L) antibody solution (manufactured by American Qualex) diluted 3,000 to 6,000-folds with BSA-PBS was added as a secondary antibody solution at 50 μl/well and allowed to react at room temperature for 1 hour. […] Thereafter, absorbance at 415 nm (OD415) was measured.
The activity of various anti-FGF-8 CDR-grafted antibodies obtained in the item 4 of Example 2 to bind to FGF-8 was measured by the ELISA described in the item 2(6) of Example 1. […]

[3] = molecular target: T2, BSA-compound 1 conjugate (human FGF-8 …); test: ELISA, plate-coated BSA-compound 1 conjugate, anti-human IgG-peroxidase detection
Experimental: The conjugate prepared in the above was dispensed at 50 μl/well into a 96 well plate for ELISA (manufactured by Greiner) at a concentration of 0.5 to 1.0 μg/ml and allowed to stand for adsorption overnight at 4° C. After washing with PBS, 1% BSA-containing PBS (BSA-PBS) was added at 100 μl/well and allowed for blocking of remaining active groups to react at room temperature for 1 hour. After washing each well with 0.05% Tween-containing PBS (Tween-PBS), culture supernatants of transformants or purified antibodies were added at 50 μl/well and allowed to react at room temperature for 1 hour. After the reaction, each well was washed with Tween-PBS and then a peroxidase-labeled goat anti-human IgG (H & L) antibody solution (manufactured by American Qualex) diluted 3,000 to 6,000-folds with BSA-PBS was added as a secondary antibody solution at 50 μl/well and allowed to react at room temperature for 1 hour. After the reaction and subsequent washing with Tween-PBS, an ABTS substrate solution [a solution prepared by dissolving 0.55 g of 2,2′-azinobis(3-ethylbenzothiazoline-6-sulfonic acid) ammonium in 1 L of 0.1 M citrate buffer (pH 4.2) and adding 1 μl/ml hydrogen peroxide just before use] was added at 50 μl/well for color development, and the reaction was stopped by adding 5% SDS solution at 50 µl/well. Thereafter, absorbance at 415 nm (OD415) was measured.
The activity of various anti-FGF-8 CDR-grafted antibodies obtained in the item 4 of Example 2 to bind to FGF-8 was measured by the ELISA described in the item 2(6) of Example 1. The YB2/0-derived anti-FGF-8 chimeric antibody KM3334 obtained in the item 3(2) of Example 1 was used as a positive control.

[4] = molecular target: T3, FGF-8 (manufactured by R&D); test: cell-based or functional assay

| Binder | binding result [1] | binding result [3] | also measured |
| --- | --- | --- | --- |
| anti-FGF-8 CDR-grafted antibody HV0LV3-1/CHO (antibody, V domains shown, CHO/DG44-derived; also called KM8036) VH: QVQLVQSGAEVKKPGASVKVSCKASGYTFTDYYLNWVRQAPGQGLEWMGEIDPGSDSIYYNENLEGRVTITADTSTSTAYMELSSLRSEDTAVYYCARYGYSRYDVRFVYWGQGTLVTVSS VL: DVVMTQSPLSLPVTPGEPASISCRSSQSLVHSNGRTYLEWYLQKPGQSPQVLIYKVSNRISGVPDRFSGSGSGTDFTLKISRVEAEDVGVYFCFQGSHVPYTFGQGTKVEIK | binds | – | – |
| anti-FGF-8 chimeric antibody KM3334 (antibody, V domains shown, Same expression vector pKANTEX1334 as KM3034 (human gamma1 / kappa constant regions), expressed in YB2/0 cells; also called KiM3334; YB2/0-derived anti-FGF-8 chimeric antibody) VH: QVQLQQSGAEVARPGASVKLSCKASGYTFTDYYLNWVKQRSGQGLEWIGEIDPGSDSIYYNENLEGRATLTADKSSSTAYMQLNSLTSEDSAVYFCARYGYSRYDVRFVYWGQGTLVTVST VL: DVLMTQTPLSLPVSLGDQASISCRSSQSLVHSNGRTYLEWYLQKPGQSPKVLIYKVSNRISGVPDRFSGSGSGTDFTLKISRVEAEDLGVYFCFQGSHVPYTFGGGTKLEIK | – | – | binding result [2]: binds |
| anti-FGF-8 CDR-grafted antibody HV0LV6 (antibody, V domains shown, YB2/0-derived, vector pKANTEX1334HV0LV6 (from pKANTEX93, human constant regions); also called KM8037) VH: QVQLVQSGAEVKKPGASVKVSCKASGYTFTDYYLNWVRQAPGQGLEWMGEIDPGSDSIYYNENLEGRVTITADTSTSTAYMELSSLRSEDTAVYYCARYGYSRYDVRFVYWGQGTLVTVSS VL: DVVMTQSPLSLPVSLGEPASISCRSSQSLVHSNGRTYLEWYLQKPGQSPKVLIYKVSNRISGVPDRFSGSGSGTDFTLKISRVEAEDVGVYFCFQGSHVPYTFGQGTKVEIK | – | binds | – |
| anti-FGF-8 CDR-grafted antibody HV0LV3-3/CHO (antibody, V domains shown) VH: QVQLVQSGAEVKKPGASVKVSCKASGYTFTDYYLNWVRQAPGQGLEWMGEIDPGSDSIYYNENLEGRVTITADTSTSTAYMELSSLRSEDTAVYYCARYGYSRYDVRFVYWGQGTLVTVSS VL: DIVMTQSPLSLPVSLGEPASISCRSSQSLVHSNGRTYLEWYLQKPGQSPQVLIYKVSNRISGVPDRFSGSGSGTDFTLKISRVEAEDVGVYYCFQGSHVPYTFGQGTKVEIK | – | – | FGF-8 neutralization activity (FGF-8-dependent growth of SC-3 cells) [4]: ~0.5 fold of the activity of KM3034 |
| anti-FGF-8 CDR-grafted antibody HV0LV4-3/CHO (antibody, V domains shown, CHO/DG44-derived; also called KM8035) VH: QVQLVQSGAEVKKPGASVKVSCKASGYTFTDYYLNWVRQAPGQGLEWMGEIDPGSDSIYYNENLEGRVTITADTSTSTAYMELSSLRSEDTAVYYCARYGYSRYDVRFVYWGQGTLVTVSS VL: DIVMTQSPLSLPVSLGEPASISCRSSQSLVHSNGRTYLEWYLQKPGQSPQVLIYKVSNRISGVPDRFSGSGSGTDFTLKISRVEAEDVGVYFCFQGSHVPYTFGQGTKVEIK | binds | – | FGF-8 neutralization activity (FGF-8-dependent growth of SC-3 cells) [4]: ~0.5 fold of the activity of KM3034 |

More lines, main results first:

| binding result [1] | binding result [3] | Binder | also measured |
| --- | --- | --- | --- |
| binds | – | anti-FGF-8 chimeric antibody KM3034 (antibody, V domains shown, Human chimeric antibody with human gamma1 CH and human kappa CL (vector pKANTEX1334, from pKANTEX93), expressed in CHO/DG44 cells; also called CHO/DG44-derived anti-FGF-8 chimeric antibody) VH: QVQLQQSGAEVARPGASVKLSCKASGYTFTDYYLNWVKQRSGQGLEWIGEIDPGSDSIYYNENLEGRATLTADKSSSTAYMQLNSLTSEDSAVYFCARYGYSRYDVRFVYWGQGTLVTVST VL: DVLMTQTPLSLPVSLGDQASISCRSSQSLVHSNGRTYLEWYLQKPGQSPKVLIYKVSNRISGVPDRFSGSGSGTDFTLKISRVEAEDLGVYFCFQGSHVPYTFGGGTKLEIK | – |
| – | binds | anti-FGF-8 CDR-grafted antibody HV0LV0 (antibody, V domains shown, YB2/0-derived, vector pKANTEX1334HV0LV0 (from pKANTEX93, human constant regions)) VH: QVQLVQSGAEVKKPGASVKVSCKASGYTFTDYYLNWVRQAPGQGLEWMGEIDPGSDSIYYNENLEGRVTITADTSTSTAYMELSSLRSEDTAVYYCARYGYSRYDVRFVYWGQGTLVTVSS VL: DIVMTQSPLSLPVTPGEPASISCRSSQSLVHSNGRTYLEWYLQKPGQSPQLLIYKVSNRISGVPDRFSGSGSGTDFTLKISRVEAEDVGVYYCFQGSHVPYTFGQGTKVEIK | – |
| binds | – | anti-FGF-8 CDR-grafted antibody HV0LV0/CHO (antibody, V domains shown, CHO/DG44-derived, vector pKANTEX1334HV0LV0) VH: QVQLVQSGAEVKKPGASVKVSCKASGYTFTDYYLNWVRQAPGQGLEWMGEIDPGSDSIYYNENLEGRVTITADTSTSTAYMELSSLRSEDTAVYYCARYGYSRYDVRFVYWGQGTLVTVSS VL: DIVMTQSPLSLPVTPGEPASISCRSSQSLVHSNGRTYLEWYLQKPGQSPQLLIYKVSNRISGVPDRFSGSGSGTDFTLKISRVEAEDVGVYYCFQGSHVPYTFGQGTKVEIK | – |
| – | binds | anti-FGF-8 CDR-grafted antibody HV6LV6 (antibody, V domains shown, YB2/0-derived, vector pKANTEX1334HV6LV6 (from pKANTEX93, human constant regions)) VH: QVQLVQSGAEVARPGASVKVSCKASGYTFTDYYLNWVRQRSGQGLEWIGEIDPGSDSIYYNENLEGRVTITADTSTSTAYMELSSLRSEDTAVYFCARYGYSRYDVRFVYWGQGTLVTVSS VL: DVVMTQSPLSLPVSLGEPASISCRSSQSLVHSNGRTYLEWYLQKPGQSPKVLIYKVSNRISGVPDRFSGSGSGTDFTLKISRVEAEDVGVYFCFQGSHVPYTFGQGTKVEIK | – |
| binds | – | anti-FGF-8 CDR-grafted antibody HV0LV6/CHO (antibody, V domains shown, CHO/DG44-derived, vector pKANTEX1334HV0LV6; also called KM8034) VH: QVQLVQSGAEVKKPGASVKVSCKASGYTFTDYYLNWVRQAPGQGLEWMGEIDPGSDSIYYNENLEGRVTITADTSTSTAYMELSSLRSEDTAVYYCARYGYSRYDVRFVYWGQGTLVTVSS VL: DVVMTQSPLSLPVSLGEPASISCRSSQSLVHSNGRTYLEWYLQKPGQSPKVLIYKVSNRISGVPDRFSGSGSGTDFTLKISRVEAEDVGVYFCFQGSHVPYTFGQGTKVEIK | – |
